Reference: patent publication US12312397B2, “Anti-O2 antibodies and uses thereof” (priority 2016, dated 2025)
Residue numbers refer to the chain shown, from its start. Numbers in names are those of the source.

Assays:
[1] = system: K. pneumoniae 8570ΔcpsBLux (O2); assay: Opsonophagocytic killing (OPK) assay, O2 capsule mutant; format: cell-based, Klebsiella pneumoniae; set-up: key to D Capsule OPK O2: +++: Strongly positive activity; +: Positive activity; +/−: Somewhat positive depending upon the test conditions; conditions: for D Capsule OPK O2: capsule mutant strain 8570ΔcpsB lux (O2); for OPK activity against O2 capsule mutant: secondary screening
Method: OPK activity of anti-O2 LPS mAbs was tested against O1 and O2 strains. Briefly, log phase cultures of luminescent K. pneumoniae strains 8570ΔcpsBLux (O2) and 43816ΔcpsBLux (O1) were diluted to ˜2×10^6 cells/ml. K. pneumoniae cells, 5e5/well dimethylformamide (DMF) differentiated HL-60 cells, cleared baby rabbit serum (1:10 Cedarlane), and a series dilution of antibodies (2 ng-2.5 μg/mL) were mixed in 96-well plates and incubated at 37° C. for two hours with shaking (250 rpm). The relative light units (RLUs) were then measured using a multi-mode microplate reader (Synergy 2, Biotek or envision multilabel plate reader, Perkin Elmer). The percentage of killing was determined by comparing RLU derived from assays with no antibodies to RLU derived from assays with anti-K. pneumoniae mAbs and assays performed with a negative control mAb. Positive killing was determined where the percentage of killing is above 40%.

[2] = system: O2 LPS; assay: ELISA binding to O2 LPS; set-up: species or system Klebsiella pneumoniae; conditions: for binding to LPS-O2: secondary screening, ELISA; for binding to O2 LPS compared to parent antibody: sequence-optimized variants, FIG. 9
Method: The coated plates were incubated with cell culture supernatants from polyclonally stimulated lymphocytes (AMVBRA) or from monoclonal immortalized B cells (donor interrogations) containing fully human antibodies or with diluted plasma samples (PBMC donor selections) for 1 hour at room temperature. The plates were then washed with PBS containing 0.1% Tween-20 (PBS-T). Secondary antibody was added; either Alkaline Phosphatase-conjugated Goat Anti-Human IgG-AP (Southern Biotech, 2040-04, 1:1000 in PBS-B) or Peroxidase AffiniPure F(ab′)2 Fragment Goat Anti-Human IgG, Fc Fragment Specific (Jackson ImmunoResearch #309 036 098, 1:5000 in PBS-B) were used. Secondary antibodies were typically incubated for 1 h. Plates were washed three times with PBS-T, and P-NitroPhenyl Phosphate (pNPP, Sigma-Aldrich, cat #N2765-100TAB) or Sureblue (KPL, 53-00-03) substrates were added and incubated for 10 min or until the development of a colorimetric reaction. In the case of the HRP substrate Sureblue, the reaction was stopped by adding an equal volume of 0.2N HCl. The absorbance at 405 nm (pNPP) or 450 nm (Sureblue) was measured by a microplate reader (Biotek, Elx808).
The coated plates were incubated with serial dilutions of the monoclonal antibodies for 1 hour at room temperature. The plates were then washed with PBS containing 0.1% Tween-20 (PBS-T). Alkaline Phosphatase-conjugated Goat Anti-Human IgG (Southern Biotech, 2040-04, 1:1000 in PBS-B) was added. The secondary antibody reactions were incubated for 1 h. Plates were washed three times with PBS-T, and P-NitroPhenyl Phosphate (pNPP, Sigma-Aldrich, cat #N2765-100TAB) substrate was added and incubated for 30 min or until the development of a colorimetric reaction. The absorbance at 405 nm was measured by a microplate reader (Biotek, Elx808). The data was plotted with Graphpad Prism software. Representative mAbs from each class were tested for their binding to O1 LPS (FIG. 2A) and O2 LPS (FIG. 2B), and EC50 values were obtained (FIG. 2C). The majority of the anti-O2 LPS mAbs bound to both O1 and O2 LPS by ELISA. […] None of these LPS mAbs bound to the 03, 04, 05, 07, or 012 LPS serotypes (see e.g., FIG. 1A).

[3] = system: O1 LPS activation of NF-κB in RAW264.7-lux cells; assay: LPS neutralization assay (NF-κB luciferase, RAW264.7-lux), O1 LPS; format: cell-based, murine; conditions: human IgG1 format
Method: (§1) Activation of TLR4 receptors by bacterial LPS leads to downstream activation of the NF-κB transcriptional regulator. A decrease in induction of NF-κB-responsive luciferase activity was used to quantify LPS neutralization activity by LPS mAbs. A murine RAW264.7 macrophage cell line was engineered to carry a firefly luciferase reporter gene under the control of an NF-κB-responsive promoter (RAW264.7-lux). Serially diluted antibody stocks were mixed with LPS in a 1:1 ratio and incubated at 4° C. for 1 hr. Antibody/LPS mixtures were then diluted 1:10 into assay plates containing pre-seeded RAW264.7-lux cells (4e5 cells/well), which were then placed at 37° C. with 5% CO2 for 2.5 hours. Following incubations, Steady Glo solution (Promega) was added to each well and incubated for another 20 min protected from light. The relative light units (RLUs) were measured using a multi-mode microplate reader (Synergy 2, Biotek or envision multilabel plate reader, Perkin Elmer). The percentage of inhibition was determined by comparing RLU derived from assays with no antibodies to RLU derived from assays with anti-K. pneumoniae mAbs and assays performed with a negative control mAb. […] All mAbs were tested in human IgG1 format.

[4] = system: O2 LPS activation of NF-κB in RAW264.7-lux cells; assay: LPS neutralization assay (NF-κB luciferase, RAW264.7-lux), O2 LPS; format: cell-based, murine; set-up: key to LPS Neut O2: +++: Strongly positive activity; +: Positive activity; +/−: Somewhat positive depending upon the test conditions; conditions: for LPS Neut O2: Table 7 summary; for neutralizing activity against O2 LPS (NF-κB activation): human IgG1 format; for neutralization of LPS-O2: secondary screening
Method: as §1

B1: 6F6: Class I mouse hybridoma anti-O2 mAb (Ms IgM); VH SEQ ID NO: 80, VL SEQ ID NO: 81 (antibody, V domains shown)
VH: QVHLQQSGSELRSPGSSVKLSCKDFDSDVFPIAYMGWIRQQPGHGFDWIGDILPNIGRTIYGEKFEDKATLDADTVSNTAYLELSSLTSEDSAIYYCARRGTSGAMDYWGQGTSVTVSS
VL: DVVMTQTPLFLPVSLGDQASISCRSSQGLVHSTGNTFLHWYLQKPGQSPKLLIYKVSNRFSGVPDRFSGSGSGTDFTLKISRVEAEDLGIYFCSQSTHIPYTFGGGTKLEIK
modifications: Description of Artificial Sequence: Synthetic6F6 VH polypeptide; Description of Artificial Sequence: Synthetic6F6 VL polypeptide
**Q.** For B1, which “D Capsule OPK O2” value [1] is on record?
**A.** +

B2: KPS3: Class III anti-O2 antigen human mAb; VH SEQ ID NO: 35, VL SEQ ID NO: 36 (antibody, V domains shown)
VH: QGQLVDSGGGVVQRGGSQRLSCAASGFSFRDYGMHWVRQAPGKGLEWVAFISYDGRDQYYADSVKGRFIISRDNSKNTLSLQMNSLRPEDTAVYYCGPFYNPSLYYPPWGHGLPVIVSS
VL: EVVLTQSPATLSLSPGERATLSCRASQSISSQLAWYQQKPGQAPRLLIHDASNRDTGVPDRFSGSGSGTDFTLTISSLEPEDFAMYYCLQRNNWPPWTFGQGTKVEIK
modifications: Description of Artificial Sequence: SyntheticKPS3 VH polypeptide; Description of Artificial Sequence: SyntheticKPS3 VL polypeptide
**Q.** How did the “binding to LPS-O2” value [2] turn out when B2 was run?
**A.** bound specifically

**Q.** What about the “neutralizing activity against O1 LPS (NF-κB activation)” value [3] of the same molecule?
**A.** no activity

**Q.** What about the “LPS Neut O2” value [4] of the same molecule?
**A.** +/−

**Q.** What about the “neutralizing activity against O2 LPS (NF-κB activation)” value [4] of the same molecule?
**A.** moderate neutralizing activity

**Q.** And the “neutralization of LPS-O2” value [4]?
**A.** neutralized

**Q.** And the “D Capsule OPK O2” value [1]?
**A.** +++

**Q.** What about the “OPK activity against O2 capsule mutant” value [1] of the same molecule?
**A.** strong OPK activity

B3: KPS18: Class III anti-O2 antigen human mAb; VH SEQ ID NO: 98, VL SEQ ID NO: 99 (antibody, V domains shown)
VH: EVRLVESGGGLVKPGGSLRLSCAASGFTFKNAWMSWIRQAPGKGLEWVGRVKNEVDGGTIDYGVPVRGRFTISRDDSQGTLSLEMNSLREDDTGIYYCRAFWSGFPAGYWGQGTLVSVSS
VL: QSVLTQPPSLSAAPGQTVTIACSGSRSNIGSDSVSWFQQFPGTAPRVLMYDNNKRPSGISDRFSGSKSGTSVTLDITGLQTGDEADYYCATWDSSLSAYVFGSGTKVTVL
modifications: Description of Artificial Sequence: SyntheticKPS18 VH polypeptide; Description of Artificial Sequence: SyntheticKPS18 VL polypeptide
**Q.** How did the “binding to LPS-O2” value [2] turn out when B3 was run?
**A.** bound specifically

**Q.** And the “neutralizing activity against O1 LPS (NF-κB activation)” value [3]?
**A.** no activity

**Q.** And the “LPS Neut O2” value [4]?
**A.** +/−

**Q.** And the “neutralizing activity against O2 LPS (NF-κB activation)” value [4]?
**A.** moderate neutralizing activity

**Q.** And the “neutralization of LPS-O2” value [4]?
**A.** neutralized

**Q.** And the “D Capsule OPK O2” value [1]?
**A.** +++

**Q.** What about the “OPK activity against O2 capsule mutant” value [1] of the same molecule?
**A.** strong OPK activity

B4: antibody C: sequence-optimized KPN179, all frameworks germlined; VH SEQ ID NO: 188, VL SEQ ID NO: 191 (antibody, V domains shown)
VH: EVQLVESGGGLVKPGGSLRLSCAASGFTFSNAWMNWVRQAPGKGLEWVGRIKRKADGETTDYAAPVKGRFTISRDDSKNTLYLQMNSLKTEDTAVYYCTTRIVTTNDYWGQGTLVTVSS
VL: QSALTQPRSVSGSPGQSVTISCTGTSSDVGYYDYVSWYQQHPGKAPKLMIYDVNKRPSGVPDRFSGSKSGNTASLTISGLQAEDEADYYCASYAGGDTFVFGTGTKVTVL
modifications: Description of Artificial Sequence: SyntheticKPN179-FR-GL N35S-VH/KPN179-FR-GL-C105A-VL VHpolypeptide; Description of Artificial Sequence: SyntheticKPN179-FR-GL N35S-VH/KPN179-FR-GL-C105A-VL VL polypeptide
**Q.** For B4, which “binding to O2 LPS compared to parent antibody” value [2] is on record?
**A.** significantly reduced binding

B5: antibody A: sequence-optimized KPN42, all frameworks germlined; VH SEQ ID NO: 26, VL SEQ ID NO: 27 (antibody, V domains shown)
VH: B4 VH with S30N, N31D, R53K, A55H, D56E, E58V
VL: B4 VL with Y31A, T98I
modifications: Description of Artificial Sequence: SyntheticKPN42-FR-GL-VH/KPN42-FR-GL-C105A-VL VH polypeptide; Description of Artificial Sequence: SyntheticKPN42-FR-GL-VH/KPN42-FR-GL-C105A-VL VL polypeptide
**Q.** With B5 as the molecule, how does the “binding to O2 LPS compared to parent antibody” value [2] read?
**A.** comparable binding

B6: antibody B: sequence-optimized KPN42; VH SEQ ID NO: 17, VL SEQ ID NO: 18 (antibody, V domains shown)
VH: EVQLVESGGGLVKPGGSLRLSCAASGFTFNDAWMNWVRQAPGKGLEWVGRIKKKHEGVTTDYPASVRGRFTISRDDSKNTVYLQMGRLRIEDTAIYYCTTRIVTTNDYWGQGTLVTVSS
VL: B4 VL with Y31A, T98I
modifications: Description of Artificial Sequence: SyntheticKPN42-v2016 VH polypeptide; Description of Artificial Sequence: SyntheticKPN42-v2016 VL polypeptide
**Q.** For B6, which “binding to O2 LPS compared to parent antibody” value [2] is on record?
**A.** comparable binding

B7: antibody D: sequence-optimized KPN179; VH SEQ ID NO: 187, VL SEQ ID NO: 190 (antibody, V domains shown)
VH: B4 VH with A63P, P65S, I72V, L81I, V95I
VL: B4 VL
modifications: Description of Artificial Sequence: SyntheticKPN179-FR-1-2-4-GL N35S-VH/KPN179-FR-GL-C105A-VL VHpolypeptide; Description of Artificial Sequence: SyntheticKPN179-FR-1-2-4-GL N35S-VH/KPN179-FR-GL-C105A-VL VLpolypeptide
**Q.** With B7 as the molecule, how does the “binding to O2 LPS compared to parent antibody” value [2] read?
**A.** comparable binding
